# In paper PMC3699834:
# B1: AMT1;3 (Arabidopsis thaliana) (protein)
# chain: MSGAITCSAADLATLLGPNATAAADYICGQLGTVNNKFTDAAFAIDNTYLLFSAYLVFAMQLGFAMLCAGSVRAKNTMNIMLTNVLDAAAGGLFYYLFGYAFAFGGSSEGFIGRHNFALRDFPTPTADYSFFLYQWAFAIAAAGITSGSIAERTQFVAYLIYSSFLTGFVYPVVSHWFWSPDGWASPFRSADDRLFSTGAIDFAGSGVVHMVGGIAGLWGALIEGPRRGRFEKGGRAIALRGHSASLVVLGTFLLWFGWYGFNPGSFTKILVPYNSGSNYGQWSGIGRTAVNTTLSGCTAALTTLFGKRLLSGHWNVTDVCNGLLGGFAAITAGCSVVEPWAAIVCGFMASVVLIGCNKLAELVQYDDPLEAAQLHGGCGAWGLIFVGLFAKEKYLNEVYGATPGRPYGLFMGGGGKLLGAQLVQILVIVGWVSATMGTLFFILKRLNLLRISEQHEMQGMDMTRHGGFAYIYHDNDDESHRVDPGSPFPRSATPPRV
# Substrate: N
# Assay: cells, lysate or membranes
# Settings: NH4Cl; oocytes clamped at −120 mV; Michaelis–Menten fit
protein,measurement,value
B1,Km,55 ± 15 µM
